Reference: patent publication US20090202980

B1: human factor XII (Hageman factor) (protein)
chain: IPPWEAPKEHKYKAEEHTVVLTVTGEPCHFPFQYHRQLYHKCTHKGRPGPQPWCATTPNFDQDQRWGYCLEPKKVKDHCSKHSPCQKGGTCVNMPSGPHCLCPQHLTGNHCQKEKCFEPQLLRFFHKNEIWYRTEQAAVARCQCKGPDAHCQRLASQACRTNPCLHGGRCLEVEGHRLCHCPVGYTGAFCDVDTKASCYDGRGLSYRGLARTTLSGAPCQPWASEATYRNVTAEQARNWGLGGHAFCRNPDNDIRPWCFVLNRDRLSWEYCDLAQCQTPTQAAPPTPVSPRLHVPLMPAQPAPPKPQPTTRTPPQSQTPGALPAKREQPPSLTRNGPLSCGQRLRKSLSSMTRVVGGLVALRGAHPYIAALYWGHSFCAGSLIAPCWVLTAAHCLQDRPAPEDLTVVLGQERRNHSCEPCQTLAVRSYRLHEAFSPVSYQHDLALLRLQEDADGSCALLSPYVQPVCLPSGAARPSETTLCQVAGWGHQFEGAEEYASFLQEAQVPFLSLERCSAPDVHGSSILPGMLCAGFLEGGTDACQGDSGGPLVCEDQAAERRLTLQGIISWGSGCGDRNKPGVYTDVAYYLAWIREHTVS
B2: recombinant tissue-type plasminogen activator (tPA) (protein)
chain: SYQVICRDEKTQMIYQQHQSWLRPVLRSNRVEYCWCNSGRAQCHSVPVKSCSEPRCFNGGTCQQALYFSDFVCQCPEGFAGKCCEIDTRATCYEDQGISYRGTWSTAESGAECTNWNSSALAQKPYSGRRPDAIRLGLGNHNYCRNPDRDSKPWCYVFKAGKYSSEFCSTPACSEGNSDCYFGNGSAYRGTHSLTESGASCLPWNSMILIGKVYTAQNPSAQALGLGKHNYCRNPDGDAKPWCHVLKNRRLTWEYCDVPSCSTCGLRQYSQPQFRIKGGLFADIASHPWQAAIFAKHRRSPGERFLCGGILISSCWILSAAHCFQERFPPHHLTVILGRTYRVVPGEEEQKFEVEKYIVHKEFDDDTYDNDIALLQLKSDSSRCAQESSVVRTVCLPPADLQLPDWTECELSGYGKHEALSPFYSERLKEAHVRLYPSSRCTSQHLLNRTVTDNMLCAGDTRSGGPQANLHDACQGDSGGPLVCLNDGRMTLVGIISWGLGCGQKDVPGVYTKVTNYLDWIRDNMRP

Assays:
[1] = biological target: human amyloid-β peptide Aβ(1-40)
[2] = biological target: T1, laminin α1-chain(2097-2108) amyloid core peptide (LAM12)
T1 chain: AASIKVAVSADR

[3] = biological target: T2, amyloid fragment of transthyretin (TTR11)
T2 chain: YTIAALLSPYS

[4] = biological target: T3, mouse non-amyloidogenic IAPP(20-29) core (ΔmIAPP)
T3 chain: SNNLGPVLPP

[5] = biological target: T4, fibrin peptide 85 (FP13), human fibrin α-chain fragment α148-160
T4 chain: KRLEVDIDIKIRS

[6] = biological target: T5, fibrin peptide 87 (FP10), non-amyloid fragment of human fibrin α-chain(148-157)
T5 chain: KRLEVDIDIK

[7] = biological target: T6, recombinant human β2-glycoprotein I (expressed in insect cells), P02749
T6 chain: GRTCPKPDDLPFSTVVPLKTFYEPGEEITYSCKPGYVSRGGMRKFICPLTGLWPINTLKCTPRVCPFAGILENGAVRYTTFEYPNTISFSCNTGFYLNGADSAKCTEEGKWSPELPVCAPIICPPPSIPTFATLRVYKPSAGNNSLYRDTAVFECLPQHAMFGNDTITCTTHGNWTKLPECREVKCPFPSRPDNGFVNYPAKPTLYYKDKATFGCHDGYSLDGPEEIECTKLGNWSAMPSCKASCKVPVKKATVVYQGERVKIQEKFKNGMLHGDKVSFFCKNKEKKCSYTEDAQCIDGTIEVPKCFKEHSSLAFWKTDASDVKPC

[8] = biological target: T7, human islet amyloid polypeptide, full length (fl-hIAPP)
T7 chain: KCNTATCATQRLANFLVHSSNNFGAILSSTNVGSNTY

[9] = biological target: T8, human IAPP amyloid core fragment (ΔhIAPP)
T8 chain: SNNFGAILSS

fibrin peptide 86 (FP12) = biological target: T9, fibrin peptide 86 (FP12)
T9 chain: KRLEVDIDIKIR

[10] = biological target: endostatin (precipitated, cross-β structure-containing)
[11] = biological target: T10, β2-glycoprotein I purified from fresh human plasma (in solution), P02749
T10 chain: T6 chain

| Protein | factor XII activation (Chromozym PK conversion via kallikrein) [1] | factor XII activation (Chromozym PK conversion via kallikrein) [2] | factor XII activation (Chromozym PK conversion via kallikrein) [3] | factor XII activation (Chromozym PK conversion via kallikrein) [4] | auto-activation of factor XII (S-2222 conversion) (Aβ(1-40) E22Q) | auto-activation of factor XII (S-2222 conversion) (FP13 K157G) | factor XII activation (Chromozym PK conversion via kallikrein) [5] | factor XII activation (Chromozym PK conversion via kallikrein) [6] | activation of plasminogen by tPA (S-2251 conversion) [1] | tPA-mediated conversion of plasminogen to plasmin (S-2251 conversion) [7] | tPA-mediated plasminogen activation [8] | tPA-mediated plasminogen activation [9] | tPA-mediated plasmin formation (plasminogen activation assay) (fibrin peptide 86 (FP12)) | tPA-mediated plasminogen activation [4] | tPA-mediated plasmin formation (plasminogen activation assay) [10] | tPA-mediated plasmin formation (plasminogen activation assay) [5] | tPA-mediated plasmin formation (plasminogen activation assay) [6] | tPA-mediated conversion of plasminogen to plasmin (S-2251 conversion) [11] |
| --- | --- | --- | --- | --- | --- | --- | --- | --- | --- | --- | --- | --- | --- | --- | --- | --- | --- | --- |
| B1 | amyloid-like peptide aggregates of FP13 and Aβ stimulate the activation of factor XII | cross-β structure-rich peptides LAM12 and TTR11 stimulate factor XII activation, to a similar extent as kaolin | cross-β structure-rich peptides LAM12 and TTR11 stimulate factor XII activation, to a similar extent as kaolin | non-amyloid controls FP10 and mIAPP do not activate factor XII | the potency of the Aβ(1-40) E22Q is somewhat lower | FP13 K157G and Hb-AGE have a potency to induce auto-activation that is similar to the established surface activator DXS500k | amyloid-like peptide aggregates of FP13 and Aβ stimulate the activation of factor XII | non-amyloid controls FP10 and mIAPP do not activate factor XII | – | – | – | – | – | – | – | – | – | – |
| B2 | – | – | – | – | – | – | – | – | Aβ potently stimulates the activation of plasminogen by tPA | Recombinant β2gpi and not β2gpi purified from fresh plasma, stimulates effectively the tPA-mediated conversion of plasminogen to plasmin | Both full-length (fl-hIAPP) and truncated amyloid core (Δ-hIAPP), but not mouse IAPP (Δ-mIAPP), stimulate tPA-mediated plasminogen activation | Both full-length (fl-hIAPP) and truncated amyloid core (Δ-hIAPP), but not mouse IAPP (Δ-mIAPP), stimulate tPA-mediated plasminogen activation | peptides 85 and 86, both containing a cross-β structure, do stimulate the formation of plasmin by tPA | but not mouse IAPP (Δ-mIAPP) | stimulating activity of cross-β structure-containing endostatin on tPA-mediated plasmin formation | peptides 85 and 86, both containing a cross-β structure, do stimulate the formation of plasmin by tPA | peptide 87, which lacks a cross-β structure, does not | Recombinant β2gpi and not β2gpi purified from fresh plasma, stimulates effectively the tPA-mediated conversion of plasminogen to plasmin |
